{
  "source": "patent US20240368307A1",
  "about": "“METHODS AND COMPOSITIONS FOR TREATING SEPSIS” (THE UNIVERSITY OF CHICAGO, priority 2023, published 2024)",
  "molecules": {"B1": {"name": "rPLA2G5: human recombinant PLA2G5 (Cayman chemical, 10009563) (protein, UniProt P39877 21-138, looked up)", "Phospholipase A2 group V": "GLLDLKSMIEKVTGKNALTNYGFYGCYCGWGGRGTPKDGTDWCCWAHDHCYGRLEEKGCNIRTQSYKYRFAWGVVTCEPGPFCHVNLCACDRKLVYCLKRNLRSYNPQYQYFPNILCS"}},
  "key": {"human recombinant PLA2G5": {"molecular_target": "T1, human recombinant PLA2G5 (Homo sapiens, UniProt P39877)", "T1 construct": "purchased Cayman chemical 10009563", "T1 sequence (P39877 21-138)": "B1 Phospholipase A2 group V", "test": "In vitro erythrocyte lysis assay with varespladib", "type": "cell-based", "conditions": "100 nM of varespladib; PS-exposing erythrocytes", "description": "(§1) The inventors hypothesized that PLA2G5 impacted red blood cells because of the impact of PLA2G5 blockade on splenic red pulp macrophages and iron stores. […] Next, the inventors examined the effect of osmotic pressure on the hemolysis induced by rPLA2G5.\nIn vitro erythrocyte lysis assay. Mouse whole blood was spun at 1,000 g, the plasma and buffy coat were removed, and red blood cells were washed three times in Hepes-buffered saline. Subsequently, a portion of erythrocytes was incubated with 100 μM CaCl2) in Hepes-buffered saline for 3 min at 37° C. Calcium ionophore (Cayman Chemical, A23187) was added to a final concentration of 4 μM, and the cells were further incubated for 10 min at 37° C. to induce membrane phospholipid (PS) scrambling. After that, 2 mM EDTA was added to stop the reaction. […] Hemolysis was measured by determining the amount of oxyhemoglobin in the supernatant of erythrocyte suspensions after centrifugation at 4,000 g. The absorbance at 414 nm in the supernatant of erythrocyte suspensions was measured using Nanodrop (Thermoscientific) and compared to that of a hemolyzed aliquot of the same erythrocyte suspension treated with Triton X-100."}, "mouse RBCs": {"system": "mouse RBCs", "test": "In vitro erythrocyte lysis assay with recombinant PLA2G5", "type": "cell-based", "description": "as §1\nIn vitro erythrocyte lysis assay. Mouse whole blood was spun at 1,000 g, the plasma and buffy coat were removed, and red blood cells were washed three times in Hepes-buffered saline. Subsequently, a portion of erythrocytes was incubated with 100 μM CaCl2) in Hepes-buffered saline for 3 min at 37° C. Calcium ionophore (Cayman Chemical, A23187) was added to a final concentration of 4 μM, and the cells were further incubated for 10 min at 37° C. to induce membrane phospholipid (PS) scrambling. After that, 2 mM EDTA was added to stop the reaction. In the presence or absence of 100 nM of varespladib, hypertonic solution (100 mM NaCl), or hypotonic solution (water-diluted Hepes-buffered saline), PS-exposing or untreated erythrocytes (10^9 cells/mL) were incubated with 5, 50, or 500 ng/mL of human recombinant PLA2G5 (Cayman chemical, 10009563) for 1 h at 37° C. in Hepes-buffered saline with 2 mM of calcium for the activity of PLA2G5. Hemolysis was measured by determining the amount of oxyhemoglobin in the supernatant of erythrocyte suspensions after centrifugation at 4,000 g. The absorbance at 414 nm in the supernatant of erythrocyte suspensions was measured using Nanodrop (Thermoscientific) and compared to that of a hemolyzed aliquot of the same erythrocyte suspension treated with Triton X-100."}, "erythrocytes": {"system": "erythrocytes", "test": "Lipidomics analysis of erythrocytes incubated with rPLA2G5", "type": "cell-based, mouse", "conditions": "100 ng/mL rPLA2G5; 1 h at 37° C.", "text": "To elucidate how PLA2G5 affected RBC membranes at the molecular level during hemolysis, the inventors performed lipidomics on erythrocytes in the presence or absence of rPLA2G5 in vitro.\nLipidomics analysis of erythrocytes. The procedures for lipidomics analysis using high-performance liquid chromatography coupled with electrospray tandem mass spectrometry (LC-ESI-MS/MS) were described above. Mouse whole blood was spun at 1,000 g, the plasma and buffy coat were removed, and red blood cells were washed three times in Hepes-buffered saline. Subsequently, a portion of erythrocytes was incubated with 100 μM CaCl2) in Hepes-buffered saline for 3 min at 37° C. Calcium ionophore (Cayman Chemical, A23187) was added to a final concentration of 4 μM, and the cells were further incubated for 10 min at 37° C. to induce membrane phospholipid (PS) scrambling. After that, 2 mM EDTA was added to stop the reaction. PS-exposing or untreated erythrocytes (10^9 cells/mL) were incubated with or without 100 ng/mL of human recombinant PLA2G5 (Cayman chemical, 10009563) for 1 h at 37° C. in Hepes-buffered saline with 2 mM of calcium for the activity of PLA2G5. The samples were kept at −80° C. until the following procedures."}, "[1]": {"test": "Recombinant PLA2G5 injection in naive mice", "type": "in vivo, mouse", "conditions": "10 μg rPLA2G5 intravenously", "text": "Next, the inventors hypothesized that PLA2G5 impacted red blood cells in vivo during sepsis. To test this hypothesis, the inventors measured the plasma levels of heme, a degradation product of cell-free hemoglobin, in Pla2g5^+/+ and Pla2g5^−/− mice challenged with LPS. The inventors found a significant decrease in the plasma levels of heme in Pla2g5-deficient mice compared to wild type (FIG. 7A). […] The inventors next asked if PLA2G5 would be sufficient to induce intravascular hemolysis in vivo by injecting rPLA2G5 in naïve mice.\nRecombinant PLA2G5 injections. C57BL/6J mice were injected intravenously with 10 μg of recombinant PLA2G5 (Cayman chemical, 10009563).\nBlood analysis. Mouse whole blood was harvested by cardiac puncture and plasma and serum were isolated using lithium heparin coated Microtainer blood collection tubes (BD 365965) and Microtainer blood collection tubes (BD 365978), respectively. For flow cytometric, bead-based immunoassays, serum was diluted and processed using the LEGENDplex Mouse Macrophage/Microglia Panel (BioLegend 740846) kit. Data were acquired on the NovoCyte flow cytometer (Acea Biosciences/Agilent) and analyzed using the LEGNEDplex software v8 (BioLegend). To measure tissue injury marker levels in sera or plasma, samples were processed by In Vivo Animal Core, University of Michigan, with the following kits for BUN (BioAssay Systems DIUR-100), ALT (Cayman Chemical 700260), and troponin-I (Life Diagnostics CTNI-1-HS) levels according to the manufacturer's instructions, or with a Vet Axcel blood chemistry analyser (Alfa Wasserman). Total plasma heme was measured with the 3,3′,5,5′ tetramethylbenzidine (TMB) peroxidase assay and oxyhemoglobin with a Nanodrop One (Thermoscientific) instrument."}},
  "data": [
    {"molecule": "CCc1c(C(=O)C(N)=O)c2c(OCC(=O)O)cccc2n1Cc1ccccc1", "note": "[varespladib]", "values": [
      {"measurement": "effect on the hemolytic effects of rPLA2G5", "setting": "human recombinant PLA2G5", "value": "the hemolytic effects of rPLA2G5 were dependent on its phospholipase activity"}
    ]},
    {"molecule": "B1", "values": [
      {"measurement": "RBC lysis (cell-free oxyhemoglobin)", "setting": "mouse RBCs; RBCs treated with Ca2+ and calcium ionophore, 5, 50, or 500 ng/mL rPLA2G5, 1 h at 37° C.", "value": "increased RBC lysis in a dose-dependent manner"},
      {"measurement": "hemolysis mediated by rPLA2G5 in hypertonic conditions", "setting": "mouse RBCs; hypertonic solution (100 mM NaCl)", "value": "inhibited hemolysis"},
      {"measurement": "hemolysis mediated by rPLA2G5 in hypotonic conditions", "setting": "mouse RBCs; hypotonic solution (water-diluted Hepes-buffered saline)", "value": "promoted hemolysis"},
      {"measurement": "lipids released from RBC membranes", "setting": "erythrocytes", "value": "release of lysophospholipids with saturation and lower degrees of unsaturation and fatty acids"},
      {"measurement": "plasma level of heme", "setting": "[1]", "value": "sufficient to elevate"},
      {"measurement": "plasma level of oxyhemoglobin", "setting": "[1]", "value": "sufficient to elevate"},
      {"measurement": "serum level of ALT", "setting": "[1]", "value": "sufficient to elevate"},
      {"measurement": "serum level of BUN", "setting": "[1]", "value": "sufficient to elevate"}
    ]}
  ]
}
